From patent publication US20250296960A1, “PEPTIDE COMPOSITIONS AND METHODS OF USE THEREOF” (priority 2022, published 2025)
Like-named read-outs stand apart in the source and are kept apart here. Numbered stars: 1 amine (or outer) side, 2 acyl side, 3 side chain; on linkers, the order of the positions; unused ones are H or OH. Square brackets hold non-standard residues; d marks the D form. Side chains are listed from the residue outwards. Ends that are not written are not given here. * marks the point of attachment. C18 = C18 fatty acid (C16-C22 fatty acids conjugated via γGlu/8-amino-3,6-dioxaoctanoic acid spacers); Biotin = O=C1N[C@H]2[C@H](CS[C@H]2CCCCC(=O)*)N1; γGlu = O=C(O)[C@H](CCC(=O)[*:2])N[*:1]; biotin‑maleimide = B1-MAL; AEEA = NCCOCCOCC(=O)O; Aib = CC(C)(N)C(=O)O; MAL = maleimide

Key:
Test in all cases: cell-based or functional assay
[1] = biological target: T1, human glucagon receptor (GCGR), expressed on CHO-K1 cells (human, UniProt P47871 26-477)
T1 sequence (P47871 26-477): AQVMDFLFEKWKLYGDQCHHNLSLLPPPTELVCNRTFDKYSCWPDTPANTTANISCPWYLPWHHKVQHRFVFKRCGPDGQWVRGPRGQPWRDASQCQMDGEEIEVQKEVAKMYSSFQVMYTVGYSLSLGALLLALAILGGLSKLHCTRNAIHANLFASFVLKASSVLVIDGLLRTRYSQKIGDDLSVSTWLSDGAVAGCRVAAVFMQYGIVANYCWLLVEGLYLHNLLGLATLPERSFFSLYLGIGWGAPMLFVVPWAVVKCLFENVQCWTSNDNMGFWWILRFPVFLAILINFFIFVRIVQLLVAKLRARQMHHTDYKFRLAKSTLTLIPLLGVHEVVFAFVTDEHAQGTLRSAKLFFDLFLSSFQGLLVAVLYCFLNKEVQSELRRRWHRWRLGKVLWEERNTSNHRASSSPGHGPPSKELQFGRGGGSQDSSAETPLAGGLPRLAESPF

[2] = biological target: T2, human GLP-1 receptor (GLP-1R), expressed on CHO-K1 cells (human, UniProt P43220 24-463)
[3] = biological target: T3, human glucose-dependent insulinotropic polypeptide receptor (GIPR), expressed on CHO-K1 cells (human, UniProt P48546 22-466)
T3 sequence (looked up): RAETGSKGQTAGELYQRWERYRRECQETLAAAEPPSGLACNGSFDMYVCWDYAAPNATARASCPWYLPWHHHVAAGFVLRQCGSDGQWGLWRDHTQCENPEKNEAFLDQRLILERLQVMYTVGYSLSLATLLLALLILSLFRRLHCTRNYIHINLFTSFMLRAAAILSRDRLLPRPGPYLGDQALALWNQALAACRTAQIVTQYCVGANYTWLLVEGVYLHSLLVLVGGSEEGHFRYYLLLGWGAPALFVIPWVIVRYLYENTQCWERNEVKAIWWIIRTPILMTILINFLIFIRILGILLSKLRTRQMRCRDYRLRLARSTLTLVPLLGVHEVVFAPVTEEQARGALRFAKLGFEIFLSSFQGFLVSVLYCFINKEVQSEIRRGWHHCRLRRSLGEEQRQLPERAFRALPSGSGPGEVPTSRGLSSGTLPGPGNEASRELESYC

[4] = biological target: T1, human glucagon receptor (GCGR), …; remark: listed apart in the source
[5] = biological target: T2, human GLP-1 receptor (GLP-1R), …; remark: listed apart in the source
[6] = biological target: T3, human glucose-dependent insulinotropic …; remark: listed apart in the source
[7] = biological target: T1, human glucagon receptor (GCGR), …; remark: listed apart in the source
[8] = biological target: T2, human GLP-1 receptor (GLP-1R), …; remark: listed apart in the source
[9] = biological target: T3, human glucose-dependent insulinotropic …; remark: listed apart in the source
[10] = biological target: T1, human glucagon receptor (GCGR), …; remark: listed apart in the source
[11] = biological target: T2, human GLP-1 receptor (GLP-1R), …; remark: listed apart in the source
[12] = biological target: T3, human glucose-dependent insulinotropic …; remark: listed apart in the source
[13] = biological target: T1, human glucagon receptor (GCGR), …; remark: listed apart in the source
[14] = biological target: T2, human GLP-1 receptor (GLP-1R), …; remark: listed apart in the source
[15] = biological target: T3, human glucose-dependent insulinotropic …; remark: listed apart in the source
[16] = biological target: T3, human glucose-dependent insulinotropic …; remark: listed apart in the source
[17] = biological target: T1, human glucagon receptor (GCGR), …; remark: listed apart in the source
[18] = biological target: T2, human GLP-1 receptor (GLP-1R), …; remark: listed apart in the source
[19] = biological target: T1, human glucagon receptor (GCGR), …; remark: listed apart in the source
[20] = biological target: T2, human GLP-1 receptor (GLP-1R), …; remark: listed apart in the source
[21] = biological target: T3, human glucose-dependent insulinotropic …; remark: listed apart in the source
[22] = biological target: T3, human glucose-dependent insulinotropic …; remark: listed apart in the source
[23] = biological target: T2, human GLP-1 receptor (GLP-1R), …; remark: listed apart in the source
[24] = biological target: T1, human glucagon receptor (GCGR), …; remark: listed apart in the source

Y[Aib]QGTFTSDYSKYLDYMMARDFVQWLIEGGPSSGAPPPSC-NH2 (not fully specified (residue 40)) [Peptide No. 5-1A]
EC50 (nM), cAMP assay [1]: 0.576 nM | EC50 (nM), cAMP assay [2]: 0.269 nM | EC50 (nM), cAMP assay [3]: 53.9 nM | Relative % to non-lipidated peptide [4]: 0% | Relative % to non-lipidated peptide [5]: 159% | Relative % to non-lipidated peptide [6]: 11% | Relative % to native ligand [7]: 24% | Relative % to native ligand [8]: 187% | Relative % to native ligand [9]: 1% | Ratio vs. GLP-1R [10]: 13 | Ratio vs. GLP-1R [11]: 100 | Ratio vs. GLP-1R [12]: 1 | Activity relative to GLP-1 (%) [13]: 13% | Activity relative to GLP-1 (%) [14]: 100% | Activity relative to GLP-1 (%) [15]: 1%

H[Aib]QGTFTSDASKYLDRDWTGDFVQWLIDGGPSSGAPPPSC([MAL-AEEA-AEEA-γGlu-C18])-NH2 [Peptide No. 32A (peptide 32, A type: lipid at Cys40)]
Percentage change in EC50 relative to GIP at human GIPR (%) [16]: 0% | Percentage change in EC50 relative to GCG at human GCGR (%) [17]: 0% | Percentage change in EC50 relative to GLP-1 at human GLP-1R (%) [18]: 1%

H[Aib]QGTFTSDHSWYLDKWTAHDFVQWLINGGPSSGAPPPSC([MAL-AEEA-AEEA-γGlu-C18])-NH2 [Peptide No. 18A (peptide 18, A type: lipid at Cys40)]
Percentage change in EC50 relative to GIP at human GIPR (%) [16]: 0% | Percentage change in EC50 relative to GCG at human GCGR (%) [17]: 0% | Percentage change in EC50 relative to GLP-1 at human GLP-1R (%) [18]: 0%

H[Aib]QGTFTSDYSKYLDYMMARDFVQWLIEGGPSSGAPPPSC([MAL-AEEA-AEEA-γGlu-C18])-NH2 [Peptide No. 5A (peptide 5, A type: lipid at Cys40)]
EC50 (nM), cAMP assay [1]: 1.71 nM | EC50 (nM), cAMP assay [2]: 0.0967 nM | EC50 (nM), cAMP assay [3]: 157 nM | EC50 (nM), cAMP assay [19]: 9.29 nM | EC50 (nM), cAMP assay [20]: 0.187 nM | EC50 (nM), cAMP assay [21]: 140 nM

H[Aib]QGTFTSDYSKLLDYMMQRDFVQWLLEGGPSSGAPPPSC([MAL-AEEA-AEEA-γGlu-C18])-NH2 [Peptide No. 5-5A]
EC50 (nM), cAMP assay [1]: 9.43 nM | EC50 (nM), cAMP assay [2]: 0.0747 nM | EC50 (nM), cAMP assay [3]: 5.17 nM | Relative % to non-lipidated peptide [4]: 1% | Relative % to non-lipidated peptide [5]: 40% | Relative % to non-lipidated peptide [6]: 3% | Relative % to native ligand [7]: 1% | Relative % to native ligand [8]: 673% | Relative % to native ligand [9]: 14% | Ratio vs. GLP-1R [10]: 0 | Ratio vs. GLP-1R [11]: 100 | Ratio vs. GLP-1R [12]: 2 | Activity relative to GLP-1 (%) [13]: 0% | Activity relative to GLP-1 (%) [14]: 100% | Activity relative to GLP-1 (%) [15]: 2%

H[Aib]QGTFTSDHSKYLDGAWAADFVMWLLDGGPSSGAPPPSC-NH2 [Peptide No. 57 (with C-terminal cysteine)]
Percentage change in EC50 relative to GIP at human GIPR (%) [22]: 0% | Percentage change in EC50 relative to GLP-1 at human GLP-1R (%) [23]: 1% | Percentage change in EC50 relative to GCG at human GCGR (%) [24]: 1%

H[Aib]QGTFTSDYSK([AEEA-AEEA-γGlu-C18])YLDYMMARDFVQWLIEGGPSSGAPPPSC(biotin‑maleimide)-NH2 [Peptide No. 5C (peptide 5, C type: lipid at Lys12 and biotin at Cys40)]
EC50 (nM), cAMP assay [19]: 3.23 nM | EC50 (nM), cAMP assay [20]: 0.0772 nM | EC50 (nM), cAMP assay [21]: 24.2 nM

H[Aib]QGTFTSDWSKYLDQQMAQDFVDWLINGGPSSGAPPPSC([MAL-AEEA-AEEA-γGlu-C18])-NH2 [Peptide No. 12A (peptide 12, A type: lipid at Cys40)]
Percentage change in EC50 relative to GIP at human GIPR (%) [16]: 8% | Percentage change in EC50 relative to GCG at human GCGR (%) [17]: 15% | Percentage change in EC50 relative to GLP-1 at human GLP-1R (%) [18]: 296%

H[Aib]QGTFTSDHSWYLDKWTAHDFVQWLINGGPSSGAPPPSC-NH2 [Peptide No. 18 (with C-terminal cysteine)]
Percentage change in EC50 relative to GIP at human GIPR (%) [22]: 0% | Percentage change in EC50 relative to GLP-1 at human GLP-1R (%) [23]: 40% | Percentage change in EC50 relative to GCG at human GCGR (%) [24]: 1%

H[Aib]QGTFTSDYSK(Biotin)YLDYMMARDFVQWLIEGGPSSGAPPPSC([MAL-AEEA-AEEA-γGlu-C18])-NH2 [Peptide No. 5B (peptide 5, B type: lipid at Cys40 and biotin at Lys12)]
EC50 (nM), cAMP assay [19]: 15.1 nM | EC50 (nM), cAMP assay [20]: 0.18 nM | EC50 (nM), cAMP assay [21]: 97.2 nM

H[Aib]QGTFTSDWSKYLDQQMAQDFVDWLINGGPSSGAPPPSC-NH2 [Peptide No. 12 (with C-terminal cysteine)]
Percentage change in EC50 relative to GIP at human GIPR (%) [22]: 4% | Percentage change in EC50 relative to GLP-1 at human GLP-1R (%) [23]: 303% | Percentage change in EC50 relative to GCG at human GCGR (%) [24]: 1200%

Y[Aib]QGTFTSDYSKYLDYMMQRDFVQWLIEGGPSSGAPPPSC-NH2 (not fully specified (residue 40)) [Peptide No. 5-2A]
EC50 (nM), cAMP assay [1]: 23 nM | EC50 (nM), cAMP assay [2]: 0.348 nM | EC50 (nM), cAMP assay [3]: 24.7 nM | Relative % to non-lipidated peptide [4]: 1% | Relative % to non-lipidated peptide [5]: 29% | Relative % to non-lipidated peptide [6]: 0.4% | Relative % to native ligand [7]: 1% | Relative % to native ligand [8]: 145% | Relative % to native ligand [9]: 3% | Ratio vs. GLP-1R [10]: 0 | Ratio vs. GLP-1R [11]: 100 | Ratio vs. GLP-1R [12]: 2 | Activity relative to GLP-1 (%) [13]: 0% | Activity relative to GLP-1 (%) [14]: 100% | Activity relative to GLP-1 (%) [15]: 2%
